The source of these data is publication PMC3124419, “Elucidating the domain architecture and functions of non-core RAG1: The capacity of a non-core zinc-binding domain to function in nuclear import and nucleic acid binding” (BMC Biochemistry, 2011).

The target of one series is T1, MBP-CND+bZDD (murine, UniProt P15919 87-380).
T1 sequence: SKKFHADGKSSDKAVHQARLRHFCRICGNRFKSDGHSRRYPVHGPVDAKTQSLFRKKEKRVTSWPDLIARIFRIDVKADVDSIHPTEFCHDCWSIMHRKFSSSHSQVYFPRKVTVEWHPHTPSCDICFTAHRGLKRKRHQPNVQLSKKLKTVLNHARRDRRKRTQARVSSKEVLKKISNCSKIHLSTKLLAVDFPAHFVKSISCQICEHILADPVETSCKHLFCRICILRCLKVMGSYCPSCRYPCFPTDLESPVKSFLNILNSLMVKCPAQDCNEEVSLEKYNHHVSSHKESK
In words: EMSA; 5 mM Mg2+; EMSA: 10 mM Tris pH 8.0, 5 mM MgCl2, 2 mM DTT, 6% glycerol, 100 mM NaCl, 25 C, 1 nM 32P-DNA; 3.5/8% discontinuous nondenaturing gel. The note with it: protein: recombinant; tags: N-terminal MBP; chain copies: 2; label: 5' 32P; hairpin, fully complementary.

Series [1] deals with T2, MBP-CND (RAG1 central non-core domain) (murine, UniProt P15919 87-217).
T2 sequence: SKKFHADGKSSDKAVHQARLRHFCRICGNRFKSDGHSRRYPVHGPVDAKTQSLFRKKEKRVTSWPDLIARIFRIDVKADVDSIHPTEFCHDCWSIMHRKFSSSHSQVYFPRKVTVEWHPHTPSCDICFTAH
Described as above. Conditions: protein: recombinant; tags: N-terminal MBP; label: 5' 32P; hairpin, fully complementary.

Series [2] has as its target T2, MBP-CND (RAG1 central non-core domain). In words: EMSA; 5 mM Mg2+; range covers EMSA and anisotropy; EMSA: 10 mM Tris pH 8.0, 5 mM MgCl2, 2 mM DTT, 6% glycerol, 100 mM NaCl, 25 C, 1 nM 32P-DNA; 3.5/8% discontinuous nondenaturing gel. The note with it: protein: recombinant; tags: N-terminal MBP; blunt.
The next series has as its target T3, MBP-bZDD (murine, UniProt P15919 218-380).
T3 sequence: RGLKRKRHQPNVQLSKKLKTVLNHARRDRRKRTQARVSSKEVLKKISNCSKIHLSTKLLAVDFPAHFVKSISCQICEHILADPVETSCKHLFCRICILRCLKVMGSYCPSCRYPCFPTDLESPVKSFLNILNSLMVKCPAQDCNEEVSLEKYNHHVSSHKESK
In words: EMSA; 5 mM Mg2+; EMSA: 10 mM Tris pH 8.0, 5 mM MgCl2, 2 mM DTT, 6% glycerol, 100 mM NaCl, 25 C, 1 nM 32P-DNA; 3.5/8% discontinuous nondenaturing gel. Conditions: protein: recombinant; tags: N-terminal MBP; chain copies: 2; blunt. (A gel shift assay detects complexes by their altered migration in electrophoresis.)

The target in series [3] is T2, MBP-CND (RAG1 central non-core domain). Put plainly: fluorescence anisotropy; range covers EMSA and anisotropy; EMSA: 10 mM Tris pH 8.0, 5 mM MgCl2, 2 mM DTT, 6% glycerol, 100 mM NaCl, 25 C, 1 nM 32P-DNA; 3.5/8% discontinuous nondenaturing gel. Conditions: protein: recombinant; tags: N-terminal MBP; blunt. A general note: Polarisation of emitted light reports the rotation of a fluorescent probe.

For series [4] the target is unchanged. Put plainly: competition; 1.5 uM MBP-CND, 1 nM labeled WT 12-RSS; EMSA: 10 mM Tris pH 8.0, 5 mM MgCl2, 2 mM DTT, 6% glycerol, 100 mM NaCl, 25 C, 1 nM 32P-DNA; 3.5/8% discontinuous nondenaturing gel. Conditions: protein: recombinant; tags: N-terminal MBP; blunt.
Series [5] deals with the molecule itself. In words: SEC-MALS; MALLS-SEC of MBP fusion proteins, 20 mL Superdex 200, starting concentration 3-10 μM, GFB buffer (20 mM Tris pH 8.0, 0.2 M NaCl, 50 μM ZnCl2, 5 mM βME).

Turning to GATATGGCTCGTCTTATAAGACGAGCCATATC (structured_DNA) [32 nt hairpin coding flank], the binding result (with MBP-CND+bZDD; in series [1]) was “binds” throughout.

B1: WT 12-RSS (dsDNA)
DNA 1: GATATGGCTCGTCTTACACAGTGATATAGACCTTAACAAAAACCTCCAATCGAGCGGAG
DNA 2: CTCCGCTCGATTGGAGGTTTTTGTTAAGGTCTATATCACTGTGTAAGACGAGCCATATC
By Kd is commonly meant a measure of binding affinity in units of concentration. Regarding B1, the Kd in series [2] is 1550 nM; in the series with MBP-bZDD it was around 1730 nM.

B2: WT 12-RSS, Oregon Green (dsDNA)
DNA 1: GATATGGCTCGTCTTACACAGTGATATAGACCTTAACAAAAACCTCCAATCGAGCGGAG
DNA 2: CTCCGCTCGATTGGAGGTTTTTGTTAAGGTCTATATCACTGTGTAAGACGAGCCATATC
On to B2, for which the equilibrium dissociation constant (Kd) in series [3] was found to be 1550 nM.

B3: mutant heptamer (MH) 12-RSS (dsDNA)
DNA 1: GATATGGCTCGTCTTAGAGAAGCATATAGACCTTAACAAAAACCTCCAATCGAGCGGAG
DNA 2: CTCCGCTCGATTGGAGGTTTTTGTTAAGGTCTATATGCTTCTCTAAGACGAGCCATATC
Regarding B3, in series [4], the binding result was “binds”.

B4: MBP-bZDD (domain or fragment, murine, UniProt P15919 218-380, looked up)
chain: RGLKRKRHQPNVQLSKKLKTVLNHARRDRRKRTQARVSSKEVLKKISNCSKIHLSTKLLAVDFPAHFVKSISCQICEHILADPVETSCKHLFCRICILRCLKVMGSYCPSCRYPCFPTDLESPVKSFLNILNSLMVKCPAQDCNEEVSLEKYNHHVSSHKESK
notes: RAG1, murine, residues 218-380 (basic region plus zinc dimerization domain, ZDD 265-380); Four zinc ions per monomer; Predicted dimeric mass 123,634 Da; also called MBP-RAG1(218-380); basic-zinc dimerization domain fused to MBP; source: E. coli BL21, purified (amylose resin, SEC); not shown: MBP, N-terminal, kept
By stoichiometry N is commonly meant the number of molecules, sites or subunits per partner or assembly. In the case of B4, the “stoichiometry N” value in series [5] came out at 2.

B5: mutant nonamer (MN) 12-RSS (dsDNA)
DNA 1: GATATGGCTCGTCTTACACAGTGATATAGACCTTAAGGCTCTGATCCAATCGAGCGGAG
DNA 2: CTCCGCTCGATTGGATCAGAGCCTTAAGGTCTATATCACTGTGTAAGACGAGCCATATC
Turning to B5, in series [4], the binding result is on record as “binds”.
